In paper PMC3960972 (The Biochemical journal, 2013):

How the values were obtained:
[1] = target: SaFosB (Staphylococcus aureus, UniProt Q5HDM4); assay: HPLC-based enzyme inhibition kinetics, purified enzyme; format: biochemical
[2] = tested on: N[C@@H](CS)C(=O)O; assay: HPLC-based steady-state kinetics; format: biochemical, Staphylococcus aureus; details: […] Mn2+; fosfomycin ([…])

Ki [1] | Compound | Km [2] | kcat [2] | kcat/Km [2]
3.9 mM | N[C@@H](CO)C(=O)N[C@H]1[C@@H](O[C@@H](CC(=O)O)C(=O)O)O[C@H](CO)[C@@H](O)[C@@H]1O [BOH] | – | – | –
– | SaFosB (Staphylococcus aureus subsp. aureus COL) | 13 mM | 2.3 ± 0.2 s⁻¹ | 175 ± 44 M⁻¹ s⁻¹
